We go through nine molecules from PMC12595441, “Glycosaminoglycans activate peptidylarginine deiminase 4 by enhancing calcium affinity” (Proceedings of the National Academy of Sciences of the …, 2025).

Data set [1] has as its target heparin. Description: SPR. Conditions: immobilized heparin.
The target in data set [2] is heparin. As to the kind of experiment: heparin activation assay with BAEE substrate, Hill equation fit (apparent KD). Conditions: 0.1 mM Ca2+.
Data set [3] deals with heparin. Description: heparin column chromatography (Poros heparin), salt gradient. Conditions: gradient of 2 M NaCl; parent: est. 31 min; read off a plot.
Data set [4] deals with the molecule itself. Description: SEC; analytical SEC in the presence of 5 µM heparin, Superdex 200 Increase 3.2/300, protein at 0.15 µM, 50 mM Tris pH 7.5, 300 mM NaCl, 0.1 mM CaCl2, 0.05% Tween20, 0.25 mM DTT; tryptophan fluorescence.
Data set [5] deals with the molecule itself. As to the kind of experiment: SEC; analytical SEC without heparin, Superdex 200 Increase 3.2/300, protein at 0.15 µM, 50 mM Tris pH 7.5, 300 mM NaCl, 0.1 mM CaCl2, 0.05% Tween20, 0.25 mM DTT; tryptophan fluorescence; compared with HMW calibration standards. (Size exclusion chromatography separates by hydrodynamic size, large species first.)

With “peptidylarginine deiminase 4 (PAD4), recombinant human, wild type (from UniProt Q9UM07) K59S; K60S; K61S; K81S; K91S”, in the data set with heparin [1], the Kd was found to be 11.8 nM; the dissociation rate constant (koff) (in general, the first-order rate constant of dissociation) was 6.7 × 10^-4; the kon (× 10^4 M^-1s^-1) was 5.6. In addition, the Kd in the data set with heparin [2] turned out to be 6.1 nM.

In the case of “peptidylarginine deiminase 4 (PAD4), recombinant human, wild type (from UniProt Q9UM07) K126S; K128S; R131S; K134S; R137S”, in the data set with heparin [1], the Kd was determined as 13.5 nM, the off-rate constant (koff) was 3.9 × 10^-4 and the kon (× 10^4 M^-1s^-1) was 3.1. Moreover, in the data set with heparin [2], the Kd amounted to 7.5 nM.

In the case of “peptidylarginine deiminase 4 (PAD4), recombinant human, wild type (from UniProt Q9UM07) R8E”, in the data set with heparin [1], the Kd stood at 15.7 nM, the koff is 4.2 × 10^-4, the kon (× 10^4 M^-1s^-1) was found to be 2.6 and the response was determined as 659 RU. Moreover, the Kd in the data set with heparin [2] turned out to be 13.5 nM.

As to “peptidylarginine deiminase 4 (PAD4), recombinant human, wild type (from UniProt Q9UM07) R8E; Y435A”, in the data set with heparin [1], the Kd amounted to 15.5 nM, the dissociation rate constant (koff) was 4.5 × 10^-4, the kon (× 10^4 M^-1s^-1) was 3 and the response was 802 RU.

As for “peptidylarginine deiminase 4 (PAD4), recombinant human, wild type (from UniProt Q9UM07) R123S; K126S; K128S”, in the data set with heparin [1], the Kd was found to be 14.4 nM, the koff was 4.6 × 10^-4, the kon (× 10^4 M^-1s^-1) came to 3 and the response came to 328 RU. Besides, in the data set with heparin [3], the other: peak elution time from heparin column amounted to 29 min. The Kd with heparin [2] was 6.2 nM.

As to “peptidylarginine deiminase 4 (PAD4), recombinant human, wild type (from UniProt Q9UM07) Y435A”, in the data set with heparin [1], the Kd came to 16.6 nM, the koff was 4.5 × 10^-4, the kon (× 10^4 M^-1s^-1) was found to be 2.8 and the response was determined as 786 RU. Besides, the Kd with heparin [2] came to 13.3 nM.

B1: PAD4^59/60/61/81/91 (K59S K60S K61S K81S K91S) (enzyme, human, UniProt Q9UM07 1-663, looked up)
chain: MAQGTLIRVTPEQPTHAVCVLGTLTQLDICSSAPEDCTSFSINASPGVVVDIAHGPPASSSSTGSSTWPLDPGVEVTLTMSVASGSTGDQSVQISYYGPKTPPVKALLYLTGVEISLCADITRTGKVKPTRAVKDQRTWTWGPCGQGAILLVNCDRDNLESSAMDCEDDEVLDSEDLQDMSLMTLSTKTPKDFFTNHTLVLHVARSEMDKVRVFQATRGKLSSKCSVVLGPKWPSHYLMVPGGKHNMDFYVEALAFPDTDFPGLITLTISLLDTSNLELPEAVVFQDSVVFRVAPWIMTPNTQPPQEVYACSIFENEDFLKSVTTLAMKAKCKLTICPEEENMDDQWMQDEMEIGYIQAPHKTLPVVFDSPRNRGLKEFPIKRVMGPDFGYVTRGPQTGGISGLDSFGNLEVSPPVTVRGKEYPLGRILFGDSCYPSNDSRQMHQALQDFLSAQQVQAPVKLYSDWLSVGHVDEFLSFVPAPDRKGFRLLLASPRSCYKLFQEQQNEGHGEALLFEGIKKKKQQKIKNILSNKTLREHNSFVERCIDWNRELLKRELGLAESDIIDIPQLFKLKEFSKAEAFFPNMVNMLVLGKHLGIPKPFGPVINGRCCLEEKVCSLLEPLGLQCTFINDFFTYHIRHGEVHCGTNVRRKPFSFKWWNMVP
notes: Full length human PAD4 (GenBank NM_012387) with K59S K60S K61S K81S K91S; source: E. coli BL21(DE3), purified (HisTrap FF, HiTrap Heparin HP, Superdex 200 SEC)
For the molecule B1, the results for the “stoichiometry N” value in data set [4] and in data set [5] were ≤ 4 and 4, respectively.

B2: PAD4^126/128/131/134/137 (K126S K128S R131S K134S R137S) (enzyme, human, UniProt Q9UM07 1-663, looked up)
chain: MAQGTLIRVTPEQPTHAVCVLGTLTQLDICSSAPEDCTSFSINASPGVVVDIAHGPPAKKKSTGSSTWPLDPGVEVTLTMKVASGSTGDQKVQISYYGPKTPPVKALLYLTGVEISLCADITRTGSVSPTSAVSDQSTWTWGPCGQGAILLVNCDRDNLESSAMDCEDDEVLDSEDLQDMSLMTLSTKTPKDFFTNHTLVLHVARSEMDKVRVFQATRGKLSSKCSVVLGPKWPSHYLMVPGGKHNMDFYVEALAFPDTDFPGLITLTISLLDTSNLELPEAVVFQDSVVFRVAPWIMTPNTQPPQEVYACSIFENEDFLKSVTTLAMKAKCKLTICPEEENMDDQWMQDEMEIGYIQAPHKTLPVVFDSPRNRGLKEFPIKRVMGPDFGYVTRGPQTGGISGLDSFGNLEVSPPVTVRGKEYPLGRILFGDSCYPSNDSRQMHQALQDFLSAQQVQAPVKLYSDWLSVGHVDEFLSFVPAPDRKGFRLLLASPRSCYKLFQEQQNEGHGEALLFEGIKKKKQQKIKNILSNKTLREHNSFVERCIDWNRELLKRELGLAESDIIDIPQLFKLKEFSKAEAFFPNMVNMLVLGKHLGIPKPFGPVINGRCCLEEKVCSLLEPLGLQCTFINDFFTYHIRHGEVHCGTNVRRKPFSFKWWNMVP
notes: Full length human PAD4 (GenBank NM_012387) with K126S K128S R131S K134S R137S; source: E. coli BL21(DE3), purified (HisTrap FF, HiTrap Heparin HP, Superdex 200 SEC)
Turning to B2, the stoichiometry N (in general, the number of molecules, sites or subunits per partner or assembly) is ≤ 4 in data set [4] and 4 in data set [5].

B3: PAD4^123/126/128 (R123S K126S K128S) (enzyme, human, UniProt Q9UM07 1-663, looked up)
chain: MAQGTLIRVTPEQPTHAVCVLGTLTQLDICSSAPEDCTSFSINASPGVVVDIAHGPPAKKKSTGSSTWPLDPGVEVTLTMKVASGSTGDQKVQISYYGPKTPPVKALLYLTGVEISLCADITSTGSVSPTRAVKDQRTWTWGPCGQGAILLVNCDRDNLESSAMDCEDDEVLDSEDLQDMSLMTLSTKTPKDFFTNHTLVLHVARSEMDKVRVFQATRGKLSSKCSVVLGPKWPSHYLMVPGGKHNMDFYVEALAFPDTDFPGLITLTISLLDTSNLELPEAVVFQDSVVFRVAPWIMTPNTQPPQEVYACSIFENEDFLKSVTTLAMKAKCKLTICPEEENMDDQWMQDEMEIGYIQAPHKTLPVVFDSPRNRGLKEFPIKRVMGPDFGYVTRGPQTGGISGLDSFGNLEVSPPVTVRGKEYPLGRILFGDSCYPSNDSRQMHQALQDFLSAQQVQAPVKLYSDWLSVGHVDEFLSFVPAPDRKGFRLLLASPRSCYKLFQEQQNEGHGEALLFEGIKKKKQQKIKNILSNKTLREHNSFVERCIDWNRELLKRELGLAESDIIDIPQLFKLKEFSKAEAFFPNMVNMLVLGKHLGIPKPFGPVINGRCCLEEKVCSLLEPLGLQCTFINDFFTYHIRHGEVHCGTNVRRKPFSFKWWNMVP
notes: Full length human PAD4 (GenBank NM_012387) with R123S K126S K128S; source: E. coli BL21(DE3), purified (HisTrap FF, HiTrap Heparin HP, Superdex 200 SEC)
As for B3, the binding result in data set [4] was “binds”.
